Substitutions are numbered along the chain they refer to. Names may count otherwise.
B1: recombinant A2 domain of human von Willebrand factor (WT A2 protein) (other)
chain: GLLGVSTLGPKRNSMVLDVAFVLEGSDKIGEADFNRSKEFMEEVIQRMDVGQDSIHVTVLQYSYMVTVEYPFSEAQSKGDILQRVREIRYQGGNRTNTGLALRYLSDHSFLVSQGDREQAPNLVYMVTGNPASDEIKRLPGDIQVVPIGVGPNANVQELERIGWPNAPILIQDFETLPREAPDLVLQR
modifications: conjugated to Alexa Fluor 488 in the confocal microscopy experiments only
notes: not shown: histidine tag (vector pQE-9/VWF-A2)
B2: recombinant A2 (E1567A) mutant of the A2 domain of human von Willebrand factor (other)
chain: B1 chain with E87A
notes: also called A2 mutant; A2 mutant protein; not shown: Histidine tag from the pQE-9 vector

Legend:
[1] = target: recombinant SARS-CoV-2 spike protein (S) (SARS-CoV-2, UniProt P0DTC2 16-1213)
[2] = target: recombinant human vimentin (human, UniProt P08670 2-466, limits assumed); assay: ELISA: increasing concentrations of A2 variant on recombinant human vimentin, bound A2 detected with anti-A2 antibody and a secondary HRP conjugate
recombinant human vimentin, sequence (P08670 2-466 limits assumed): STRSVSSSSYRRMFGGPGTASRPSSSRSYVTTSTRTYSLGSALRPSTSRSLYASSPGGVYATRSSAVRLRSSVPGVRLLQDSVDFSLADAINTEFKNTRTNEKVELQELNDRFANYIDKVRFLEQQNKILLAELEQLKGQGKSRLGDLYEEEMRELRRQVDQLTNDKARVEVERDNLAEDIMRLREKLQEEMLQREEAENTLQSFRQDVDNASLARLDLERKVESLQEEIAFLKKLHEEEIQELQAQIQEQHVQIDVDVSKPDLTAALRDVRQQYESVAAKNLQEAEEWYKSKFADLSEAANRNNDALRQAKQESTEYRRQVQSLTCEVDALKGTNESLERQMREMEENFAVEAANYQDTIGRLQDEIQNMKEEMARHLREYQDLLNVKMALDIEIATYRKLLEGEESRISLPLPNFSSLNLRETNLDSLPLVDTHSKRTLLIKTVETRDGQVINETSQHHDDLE

Binder | binding result [1] | EC50 (read off the curve) [2]
B1 | no binding | ~40 nM
B2 | – | ~70 nM
